For the test, the target named is extra-cellular domain of recombinantly expressed RSV F protein (human Respiratory Syncytial Virus). The experiment in a line: Biacore (SPR).
Chain of extra-cellular domain of recombinantly expressed RSV F protein (human Respiratory Syncytial Virus) (P03420 26-524): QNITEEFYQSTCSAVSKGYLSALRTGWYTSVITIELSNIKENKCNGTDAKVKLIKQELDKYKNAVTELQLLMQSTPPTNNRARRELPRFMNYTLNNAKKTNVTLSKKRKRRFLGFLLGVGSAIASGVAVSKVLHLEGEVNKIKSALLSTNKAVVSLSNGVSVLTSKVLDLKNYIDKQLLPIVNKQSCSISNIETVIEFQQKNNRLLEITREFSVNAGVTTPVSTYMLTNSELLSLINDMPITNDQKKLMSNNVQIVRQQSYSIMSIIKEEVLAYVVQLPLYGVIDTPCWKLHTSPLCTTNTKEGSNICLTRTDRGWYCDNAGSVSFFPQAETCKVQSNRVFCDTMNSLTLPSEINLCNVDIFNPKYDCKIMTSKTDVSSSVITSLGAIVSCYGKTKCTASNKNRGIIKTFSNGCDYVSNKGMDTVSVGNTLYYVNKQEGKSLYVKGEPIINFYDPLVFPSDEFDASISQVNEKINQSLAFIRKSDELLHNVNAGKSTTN

Consider Numax™ (antibody), for which the Kd was determined as 0.24 nM.
The figure for “SYNAGIS® brand of pavilizumab (antibody)” is 0.4 nM.

Broadly, the Kd is the free concentration of one partner at which half of the binding sites on the other are occupied at equilibrium, for simple one-to-one binding.
